# T1: hyphal wall protein 1 (Hwp1) on C. albicans germ tube surfaces, P46593
# T1 chain: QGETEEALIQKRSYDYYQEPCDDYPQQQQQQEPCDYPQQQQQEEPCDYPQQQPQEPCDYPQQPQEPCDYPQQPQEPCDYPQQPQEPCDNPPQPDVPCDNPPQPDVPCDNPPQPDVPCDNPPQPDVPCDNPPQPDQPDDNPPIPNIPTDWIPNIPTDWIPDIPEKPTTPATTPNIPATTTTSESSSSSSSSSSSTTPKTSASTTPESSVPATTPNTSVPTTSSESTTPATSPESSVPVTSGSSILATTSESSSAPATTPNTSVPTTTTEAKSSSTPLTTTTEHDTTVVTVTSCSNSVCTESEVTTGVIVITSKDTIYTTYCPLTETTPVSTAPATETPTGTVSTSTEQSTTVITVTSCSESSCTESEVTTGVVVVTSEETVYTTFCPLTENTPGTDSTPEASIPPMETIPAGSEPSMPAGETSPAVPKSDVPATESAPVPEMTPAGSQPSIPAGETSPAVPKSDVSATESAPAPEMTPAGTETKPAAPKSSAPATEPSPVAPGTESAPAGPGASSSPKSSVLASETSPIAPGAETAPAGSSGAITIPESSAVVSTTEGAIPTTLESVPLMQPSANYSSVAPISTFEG
# B1: guinea pig liver transglutaminase (protein)
# chain: AEDLILERCDLQLEVNGRDHRTADLCRERLVLRRGQPFWLTLHFEGRGYEAGVDTLTFNAVTGPDPSEEAGTMARFSLSSAVEGGTWSASAVDQQDSTVSLLLSTPADAPIGLYRLSLEASTGYQGSSFVLGHFILLYNPRCPADAVYMDSDQERQEYVLTQQGFIYQGSAKFINGIPWNFGQFEDGILDICLMLLDTNPKFLKNAGQDCSRRSRPVYVGRVVSAMVNCNDDQGVLQGRWDNNYSDGVSPMSWIGSVDILRRWKDYGCQRVKYGQCWVFAAVACTVLRCLGIPTRVVTNFNSAHDQNSNLLIEYFRNESGEIEGNKSEMIWNFHCWVESWMTRPDLEPGYEGWQALDPTPQEKSEGTYCCGPVPVRAIKEGHLNVKYDAPFVFAEVNADVVNWIRQKDGSLRKSINHLVVGLKISTKSVGRDEREDITHTYKYPEGSEEEREAFVRANHLNKLATKEEAQEETGVAMRIRVGQNMTMGSDFDIFAYITNGTAESHECQLLLCARIVSYNGVLGPVCSTNDLLNLTLDPFSENSIPLHILYEKYGDYLTESNLIKVRGLLIEPAANSYVLAERDIYLENPEIKIRVLGEPKQNRKLIAEVSLKNPLPVPLLGCIFTVEGAGLTKDQKSVEVPDPVEAGEQAKVRVDLLPTEVGLHKLVVNFECDKLKAVKGYRNVIIGPA
# Assays:
# [1] = molecular target: BSA (Fraction V, Sigma), P02769
# [2] = molecular target: N,N' dimethylcasein
# [3] = molecular target: T1, hyphal wall protein 1 (Hwp1) on C. …
# [4] = molecular target: rHwp1ΔC37, P46593
# Sequence of BSA (Fraction V, Sigma), P02769 (P02769 25-607): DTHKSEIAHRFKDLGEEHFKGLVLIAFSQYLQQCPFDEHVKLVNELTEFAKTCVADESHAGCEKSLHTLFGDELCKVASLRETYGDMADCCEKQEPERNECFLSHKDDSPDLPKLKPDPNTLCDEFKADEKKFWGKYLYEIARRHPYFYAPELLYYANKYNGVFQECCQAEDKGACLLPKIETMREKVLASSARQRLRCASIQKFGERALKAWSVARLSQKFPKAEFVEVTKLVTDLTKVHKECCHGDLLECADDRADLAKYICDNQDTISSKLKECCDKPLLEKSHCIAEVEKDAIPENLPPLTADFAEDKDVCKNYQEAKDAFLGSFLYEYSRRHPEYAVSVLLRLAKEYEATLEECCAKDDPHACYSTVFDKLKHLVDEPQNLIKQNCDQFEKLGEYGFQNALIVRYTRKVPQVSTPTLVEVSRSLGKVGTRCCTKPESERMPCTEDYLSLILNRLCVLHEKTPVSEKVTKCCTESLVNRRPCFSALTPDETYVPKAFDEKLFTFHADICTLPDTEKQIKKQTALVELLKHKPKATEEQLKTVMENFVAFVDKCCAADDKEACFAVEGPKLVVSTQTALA
protein,measurement,setting,value
B1,[14C]-putrescine cross-linking detected by SDS-PAGE and fluorography,[1],no evidence of cross-linking of [^14C]-putrescine to transglutaminase itself or to BSA was seen
same,transglutaminase-mediated incorporation of [14C]-putrescine (TCA-precipitable counts),[1],BSA served as a negative control
same,transglutaminase-mediated incorporation of [14C]-putrescine (TCA-precipitable counts),[2],"Incorporation of [^14C]-putrescine by rHwp1?C37 was equivalent to that of casein, a known substrate of transglutaminases"
same,transglutaminase-mediated incorporation of a biotinylated lysine analogue into germ tubes (avidin-FITC fluorescence),[3],"Transglutaminase-mediated incorporation of a lysine analogue in the homozygous hwp1/hwp1 mutant strain CAH7-1A (FIG. 2E) was nearly absent as shown by the marked decrease in fluorescence compared to SC5314, CAI4, and CAH7"
same,[14C]-putrescine cross-linking detected by SDS-PAGE and fluorography,[4],[^14C]-putrescine cross-linking to rHwp1?C37 detected by SDS-PAGE and fluorography required active transglutaminase
same,transglutaminase-mediated incorporation of [14C]-putrescine (TCA-precipitable counts),[4],"Incorporation of [^14C]-putrescine by rHwp1?C37 was equivalent to that of casein, a known substrate of transglutaminases"

# Source: patent US20020122804
